Bounds are passed on as bounds.

The assay deals with σN-NpuN-Mdm2* bait fusion (residues 17-124 of Mdm2) (UniProt Q00987). Description: cell-based or functional assay.
Chain of σN-NpuN-Mdm2* bait fusion (residues 17-124 of Mdm2) (Q00987 other isoform, or with tags, fused parts or gaps limits assumed): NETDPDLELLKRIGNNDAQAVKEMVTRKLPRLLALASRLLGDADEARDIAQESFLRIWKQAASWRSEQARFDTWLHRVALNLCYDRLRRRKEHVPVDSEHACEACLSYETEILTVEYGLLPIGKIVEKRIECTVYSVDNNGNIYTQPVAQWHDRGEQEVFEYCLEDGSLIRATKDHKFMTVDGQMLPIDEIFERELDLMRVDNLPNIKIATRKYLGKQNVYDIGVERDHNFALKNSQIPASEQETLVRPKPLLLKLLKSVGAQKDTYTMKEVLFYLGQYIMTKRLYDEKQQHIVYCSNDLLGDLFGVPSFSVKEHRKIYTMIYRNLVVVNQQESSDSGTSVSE

As to “PMI-NpuC-σC peptide fusion (PMI, high affinity variant of residues 15-29 of p53)”, the difference in output with against without bait and peptide when σN-NpuN was fully induced and the NpuC-σC fragment uninduced is above 200 fold.

Values taken from patent US20230227508A1, “SPLIT INTEIN-BASED SELECTION FOR PEPTIDE BINDERS” (priority 2020, published 2023).
